Experimental data taken from patent US20240067721A1 (UNIVERSITY OF BIRMINGHAM, published 2024).
Where a chain is given by its changes, count along the chain named.

T1: recombinant GPVI-Fc (dimeric; D1 and D2 domains of GPVI fused to the Fc domain from IgG) (human, UniProt Q9HCN6 22-203)
T1 construct: range 22-203; also called GPVI-Fcγ; dimeric GPVI; not shown: Factor Xa cleavable junction and Fc domain from IgG (Sigplg+ vector)
T1 sequence (looked up): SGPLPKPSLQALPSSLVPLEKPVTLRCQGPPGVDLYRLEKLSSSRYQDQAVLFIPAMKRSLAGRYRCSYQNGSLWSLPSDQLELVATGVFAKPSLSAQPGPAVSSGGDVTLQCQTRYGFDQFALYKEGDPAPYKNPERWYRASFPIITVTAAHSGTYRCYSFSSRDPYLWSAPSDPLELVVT

T2: full length GPVI on transfected DT40 cells (with FcR-γ chain) (UniProt Q9HCN6 21-339)
T2 sequence (looked up): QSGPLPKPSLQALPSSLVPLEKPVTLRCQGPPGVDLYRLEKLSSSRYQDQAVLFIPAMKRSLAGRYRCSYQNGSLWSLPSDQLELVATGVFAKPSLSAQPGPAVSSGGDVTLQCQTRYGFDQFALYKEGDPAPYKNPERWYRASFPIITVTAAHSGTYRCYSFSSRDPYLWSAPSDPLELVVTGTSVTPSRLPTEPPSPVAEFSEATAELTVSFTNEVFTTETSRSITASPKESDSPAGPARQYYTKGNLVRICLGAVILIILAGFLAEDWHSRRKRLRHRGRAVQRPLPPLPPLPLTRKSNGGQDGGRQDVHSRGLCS

T3: GPVI on human washed platelets (human, UniProt Q9HCN6 21-339)
T3 sequence (looked up): T2 sequence (looked up)

B1: Nanobody 44 (Nb44) (VHH)
VHH: QVQLQESGGGLVQPGGALRLSCAASGFTLDYYAIGWFRQAPGKEREAVSCISSSDGSTYYADSVKGRFTISRDNAKNTVYLQMNSLKPEDTAVYYCATDPFYSDINCKSYEYAYWGQGTQVTVSSAAAYPYDVPDYGSHHHHHH
B2: Nanobody 21 (Nb21), with C-terminal HA and His tags (VHH)
VHH: QVQLQESGGGLVQPGGSLRLSCAASGRTFTRSIMGWFHQAPGKEREFLAGISWSGANTYYADSVRGRFTISRDNAKNTVSLQMNSLNPEDTAVYYCAADPSHPGSLISTRRSDYDSWGRGTQVTVSSAAAYPYDVPDYGSHHHHHH
B3: Nanobody 35 (Nb35), with C-terminal HA and His tags (VHH)
VHH: QVQLQESGGGLVQAGGSLRLSCAASGVTFDSAAMAWFRQVPGKEREFVAVISTESGGRTDHADSVKGRFLISRDNARHMVYLQMNSLNPEDTAVYYCASSLLYCSASGCYANRDSYDYWGQGTQVTVSSAAAYPYDVPDYGSHHHHHH
B4: Nanobody 2 (Nb2), with C-terminal HA and His tags (VHH)
VHH: QVQLQESGGGLVQPGGSLRLSCAAAGFTFDYYAIAWFRQAPGKEREGVSCISSSDGTTYYADSVKGRFTISKDNAKNTMYLQMNSLKPEDTAVYYCATSPLYSTNDRCISEDYDYWGQGTQVTVSSAAAYPYDVPDYGSHHHHHH
notes: Tagged form (detected with anti-His in ELISA and flow cytometry)
B5: Nanobody 25 (Nb25) (VHH)
VHH: B4 VHH with A25S, F29L, Y31N, A35G, T57R, K72R, T104D, N105S, S110W, D112E
B6: Nanobody 22 (Nb22) (VHH)
VHH: QVQLQESGGGLVQAGGSLRLSCAPSGRTISSVDVGWFRQAPGKEREFVAHVTWSGGSTYAADSVKGRFTVSRDNAKNTVYLQMNSLKPEDTAVYYCAAALNGAFRDSWYPALWDEYDYWGQGTQVTVSSAAAYPYDVPDYGSHHHHHH
B7: Nanobody 5 (Nb5) (VHH)
VHH: QVQLQESGGGLVQPGGSLRLSCAASGFTLDSHTIGWFRQAPGKEREGVSGINSSDGSTYYADSVKGRFTISRDNAKNTVYLQMDSLKVEDTAVYYCATTPFSLRGPTWVTPDEFDYWGQGTQVTVSSAAAYPYDVPDYGSHHHHHH
B8: Nanobody 19 (Nb19) (VHH)
VHH: QVQLQESGGGLVQAGGSLRLSCAASGRTFSSDAMGWFRQAPGKEREFVAAIRWSGGSTYYADSVKGRFTISRGNAKNTVYLQMNSLKPEDTAVYYCASSLLNSYYPPDHTSYEYDYWGQGTQVTVSSAAAYPYDVPDYGSHHHHHH
B9: Nanobody 28 (Nb28) (VHH)
VHH: QVQLQESGGGLVQAGDSLRLSCAASGTYSMGWFRQAPGKEREFVAAISWSGGRTNYADSVKGRFTISRDNAKNTVYLQMNSLKPEDTAVYYCSAAIYDNVSSRIGSYTYWGQGTQVTVSS
B10: Nanobody 1 (Nb1) (VHH)
VHH: QVQLQESGGGLVQAGGSLRLSCASSGFTFSGYQLAWFRHVAPGKEREFVAAIRWSGGITWYADSVKGRFTISRDNAKNTMYLQMNSLKPEETAVYYCAASPLYSNNYLLPDNYDYWGQGTQVTVSSAAAYPYDVPDYGSHHHHHH
B11: Nanobody 33 (Nb33) (VHH)
VHH: QVQLQESGGGLVQAGDSLRLSCAASGRTFSSYVMGWFRQAPGKEREFVAAISWSGGSTYYADSVKGRFTISRDNAKNTVYLQMNSLKPEDTAVYYCAAADPPSFYSDYDWPRDHEYDYWGQGTQVTVSSAAAYPYDVPDYGSHHHHHH

Experiments:
[1] = target: full length GPVI on transfected DT40 cells (with FcR-γ chain) (UniProt Q9HCN6); assay: cell-based or functional assay
[2] = target: T1, recombinant GPVI-Fc (dimeric; D1 and D2 …); assay: solid-phase binding assay: GPVI-Fc coated surface, nanobody 100 nM per the legend (1 µM per paragraph 122), anti-His HRP, Fc-surface signal subtracted, normalised to Nb35 [cont) b]
Procedure: FIG. 1. […] Results were plotted as a percentage of total signalling in the presence of collagen only. Dotted lines represent 100, 60 and 20% signalling levels. Data represent mean values of three experiments performed in triplicate±standard deviation. b) Surface binding assay of one nanobody (100 nM) from each family binding to a GPVI-Fc coated-surface. All the binding results have been normalised to Nb35 which gave the highest readout. Binding of each nanobody to the Fc domain-coated surface was tested and subtracted from the GPVI-Fc readings. Binding was detected using HRP conjugated anti-His antibody. The average binding of all the nanobodies to BSA represents a non-specific binding control. Data represent mean values of three experiments±standard deviation.
The recombinant GPVI used for immunisation and testing consisted of the extracellular D1 and D2 domains fused with the Fc domain from IgG. Immunisation with GPVI-Fc yielded 54 distinct nanobody sequences. The Fc domain was used to test whether the nanobodies recognise this region. The 54 nanobodies were categorized into 33 distinct binding classes on the basis of their complementary determining loop (CDR) 3 regions, which is the region that confers ligand specificity. Nanobodies (1 μM) from each binding class were tested for their ability to recognise a recombinant GPVI-Fc coated surface (FIG. 1b). The degree of nanobody binding varied between classes and could be categorised into strong (>50%), moderate (>20%) and weak binders (<20%). Strong binders included Nb2, 21, 35 and 52. Moderate binders included Nb7, 18, 28 and 54. All other nanobodies were considered to be weak binders.

[3] = target: T2, full length GPVI on transfected DT40 …; assay: cell-based or functional assay
[4] = target: T1, recombinant GPVI-Fc (dimeric; D1 and D2 …); assay: solid-phase binding assay, displacement of GPVI-Fc (100 nM) from a collagen surface
[5] = target: T1, recombinant GPVI-Fc (dimeric; D1 and D2 …); assay: solid-phase binding assay, displacement of GPVI-Fc (100 nM) from a collagen surface (legend of Fig. 4a; differs from the text)
[6] = target: T3, GPVI on human washed platelets; assay: cell-based or functional assay
[7] = target: T1, recombinant GPVI-Fc (dimeric; D1 and D2 …); assay: SPR (Biacore T200), GPVI-Fc amine-coupled on CM5 chip, Nb2 in solution, 1:1 kinetic fit
Procedure: Surface plasmon resonance experiments were performed using a Biacore T200 instrument (GE Healthcare). GPVI was immobilised directly onto the CM5 chip using amine-coupling. Reference surfaces were blocked using 1M ethanolamine pH 8. All sensograms shown are double reference subtracted and at least two replicates were injected per cycle as well as experimental replicates of n=3. Experiments were performed at 25° C. with a flow rate of 30 μL/min in HBS-P running buffer (10 mM HEPES pH 7.4, 0.15 M NaCl, 0.005% v/v surfactant P20). Each concentration of Nb2 was run as follows; 120 sec injection, 900 sec dissociation. Kinetic analysis was performed using the Biacore T200 Evaluation software using a global fitting to a 1:1 binding model.

[8] = target: monomeric GPVI (GPVI-Fc cleaved with Factor Xa, Fc removed) (human) (UniProt Q9HCN6); assay: SPR (Biacore T200), GPVI amine-coupled on CM5 chip, Nb2 in solution, 1:1 kinetic fit; immobilised monomeric GPVI, not GPVI-Fc

Row | Molecule | binding result [2] | inhibition of collagen-stimulated NFAT reporter activity (nanobody 100 nM, collagen 10 µg/ml) [3] [%] | also measured
1 | collagen (Horm collagen I, fibrillar) (ligand) |  |  | fold increase in NFAT activity (luciferase reporter) [1]: 8.3 fold
2 | B1 | binds | > 40 | 
3 | B2 |  | > 80 | IC50 [4]: 61 nM; IC50 [5]: 62 nM; IC50, inhibition of washed platelet aggregation to CRP (10 µg/ml) [6]: 22 nM; IC50, inhibition of washed platelet aggregation to collagen (5 µg/mL) [6]: 85 nM
4 | B3 |  |  | IC50 [4]: 39 nM; IC50, inhibition of washed platelet aggregation to CRP (10 µg/ml) [6]: 1 nM; IC50, inhibition of washed platelet aggregation to collagen (5 µg/mL) [6]: 115 nM
5 | B4 |  |  | Kd [7]: 0.7 nM; IC50 [4]: 18 nM; Kd [8]: 0.58 nM; IC50, inhibition of washed platelet aggregation to CRP (10 µg/ml) [6]: 1 nM; IC50, inhibition of washed platelet aggregation to collagen (5 µg/mL) [6]: 172 nM; inhibition of collagen-stimulated NFAT reporter activity (nanobody 100 nM, collagen 10 µg/ml) [1]: > 80%
6 | B5 | binds | > 40 | 
7 | B6 | binds | > 40 | 
8 | B7 |  | > 40 | 
9 | B8 | binds | > 40 | 
10 | B9 | binds |  | 
11 | B10 |  | > 40 | 
12 | B11 | binds | > 40 | 
